By Kd is commonly meant the equilibrium constant for the complex coming apart. Read a high Kd as lower affinity.

Data on six molecules can be found in patent US20160108115 (published 2016).

Read-outs that look alike come from different tables or passages of the source.

The target of one assay is T1, FcγRIIb/c (human, UniProt P31994).
T1 chain: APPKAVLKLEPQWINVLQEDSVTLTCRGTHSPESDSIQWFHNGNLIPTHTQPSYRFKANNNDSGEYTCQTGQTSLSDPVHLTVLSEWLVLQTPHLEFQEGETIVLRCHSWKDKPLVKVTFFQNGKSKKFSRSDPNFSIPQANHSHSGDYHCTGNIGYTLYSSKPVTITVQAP
Kind of assay: SPR, pH 7.4. For orientation: Surface plasmon resonance follows binding to a sensor surface in real time, without labels.

Another assay deals with T2, FcγRIIa (human, UniProt P12318).
T2 chain: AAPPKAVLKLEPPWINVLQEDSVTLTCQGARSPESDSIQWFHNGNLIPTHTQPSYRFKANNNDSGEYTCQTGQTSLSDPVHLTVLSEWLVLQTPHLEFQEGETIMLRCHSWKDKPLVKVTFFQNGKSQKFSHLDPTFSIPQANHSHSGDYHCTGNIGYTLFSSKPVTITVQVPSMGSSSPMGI
Kind of assay: SPR, pH 7.4.

Assay [1] has as its target T3, human C5 (human, UniProt P01031). Kind of assay: SPR.
Assay [2] deals with T3, human C5. The experiment in a line: SPR. The source holds these as a separate data set.
The target of assay [3] is T4, mouse C5 (mouse, UniProt P06684).
T4 chain 1: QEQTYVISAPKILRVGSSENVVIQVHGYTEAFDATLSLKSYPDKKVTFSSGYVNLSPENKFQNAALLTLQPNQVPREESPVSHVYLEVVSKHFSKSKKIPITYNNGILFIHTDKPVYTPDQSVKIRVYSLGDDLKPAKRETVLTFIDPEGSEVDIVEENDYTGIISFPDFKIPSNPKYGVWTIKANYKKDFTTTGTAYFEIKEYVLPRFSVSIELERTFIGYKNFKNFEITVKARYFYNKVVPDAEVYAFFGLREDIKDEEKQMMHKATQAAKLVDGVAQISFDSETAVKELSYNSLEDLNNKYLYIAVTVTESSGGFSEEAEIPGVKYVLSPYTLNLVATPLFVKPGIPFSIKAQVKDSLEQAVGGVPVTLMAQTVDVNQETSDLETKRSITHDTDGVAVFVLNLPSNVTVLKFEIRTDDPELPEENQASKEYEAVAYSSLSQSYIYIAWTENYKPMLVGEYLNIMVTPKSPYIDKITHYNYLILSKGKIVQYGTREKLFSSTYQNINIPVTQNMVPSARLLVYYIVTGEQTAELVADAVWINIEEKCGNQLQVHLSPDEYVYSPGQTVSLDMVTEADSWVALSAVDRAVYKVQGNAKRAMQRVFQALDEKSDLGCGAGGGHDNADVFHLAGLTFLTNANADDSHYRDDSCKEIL
T4 chain 2: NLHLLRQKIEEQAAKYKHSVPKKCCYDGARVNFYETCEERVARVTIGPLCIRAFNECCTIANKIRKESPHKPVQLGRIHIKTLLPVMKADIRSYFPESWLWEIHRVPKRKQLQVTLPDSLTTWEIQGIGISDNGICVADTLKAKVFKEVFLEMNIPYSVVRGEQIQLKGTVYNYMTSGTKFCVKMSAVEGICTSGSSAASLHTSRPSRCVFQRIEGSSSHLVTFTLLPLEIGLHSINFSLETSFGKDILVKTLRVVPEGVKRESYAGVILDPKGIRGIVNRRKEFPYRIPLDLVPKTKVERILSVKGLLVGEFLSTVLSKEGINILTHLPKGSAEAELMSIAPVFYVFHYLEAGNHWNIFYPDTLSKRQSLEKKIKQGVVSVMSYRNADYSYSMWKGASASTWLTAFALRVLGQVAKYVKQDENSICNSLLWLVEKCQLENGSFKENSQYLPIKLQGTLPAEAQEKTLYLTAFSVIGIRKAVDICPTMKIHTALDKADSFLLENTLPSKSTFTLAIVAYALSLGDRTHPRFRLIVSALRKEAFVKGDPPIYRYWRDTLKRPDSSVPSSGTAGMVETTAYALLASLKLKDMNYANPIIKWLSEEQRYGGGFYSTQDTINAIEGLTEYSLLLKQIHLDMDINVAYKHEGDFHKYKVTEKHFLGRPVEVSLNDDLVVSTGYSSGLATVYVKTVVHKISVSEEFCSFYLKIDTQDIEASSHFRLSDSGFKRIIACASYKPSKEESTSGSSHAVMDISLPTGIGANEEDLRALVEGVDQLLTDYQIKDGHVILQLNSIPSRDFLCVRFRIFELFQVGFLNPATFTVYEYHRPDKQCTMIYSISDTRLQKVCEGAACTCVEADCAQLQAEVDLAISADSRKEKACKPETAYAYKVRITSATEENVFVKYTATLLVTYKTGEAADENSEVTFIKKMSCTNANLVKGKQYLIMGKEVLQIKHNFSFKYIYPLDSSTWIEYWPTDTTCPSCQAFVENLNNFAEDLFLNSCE
Kind of assay: SPR, pH 6.0.

Assay [4] addresses T4, mouse C5. Kind of assay: SPR, pH 7.4.
The target of assay [5] is T4, mouse C5. Kind of assay: SPR, pH 6.0.

B1: eculizumab (full length) (antibody)
chain 1: QVQLVQSGAEVKKPGASVKVSCKASGYIFSNYWIQWVRQAPGQGLEWMGEILPGSGSTEYTENFKDRVTMTRDTSTSTVYMELSSLRSEDTAVYYCARYFFGSSPNWYFDVWGQGTLVTVSSASTKGPSVFPLAPCSRSTSESTAALGCLVKDYFPEPVTVSWNSGALTSGVHTFPAVLQSSGLYSLSSVVTVPSSNFGTQTYTCNVDHKPSNTKVDKTVERKCCVECPPCPAPPVAGPSVFLFPPKPKDTLMISRTPEVTCVVVDVSQEDPEVQFNWYVDGVEVHNAKTKPREEQFNSTYRVVSVLTVLHQDWLNGKEYKCKVSNKGLPSSIEKTISKAKGQPREPQVYTLPPSQEEMTKNQVSLTCLVKGFYPSDIAVEWESNGQPENNYKTTPPVLDSDGSFFLYSRLTVDKSRWQEGNVFSCSVMHEALHNHYTQKSLSLSLGK
chain 2: DIQMTQSPSSLSASVGDRVTITCGASENIYGALNWYQQKPGKAPKLLIYGATNLADGVPSRFSGSGSGTDFTLTISSLQPEDFATYYCQNVLNTPLTFGQGTKVEIKRTVAAPSVFIFPPSDEQLKSGTASVVCLLNNFYPREAKVQWKVDNALQSGNSQESVTEQDSKDSTYSLSSTLTLSKADYEKHKVYACEVTHQGLSSPVTKSFNRGEC
Regarding B1, the Kd was found to be 9840 nM with FcγRIIb/c and 2580 nM in the assay with FcγRIIa.

B2: EHL004 (antibody, V domains shown)
VH: QVQLVQSGAEVKKPGASVKVSCKASGYIFSNYWIQWVRQAPGQGLEWMGEILPGSGHTEYTENFKDRVTMTRDTSTSTVYMELSSLRSEDTAVYYCARYFFGSSPNWYFDVWGQGTLVTVSS
VL: DIQMTQSPSSLSASVGDRVTITCGASENIYHALNWYQQKPGKAPKLLIYGATNLADGVPSRFSGSGSGTDFTLTISSLQPEDFATYYCQNVLNTPLTFGQGTKVEIK
B2: the equilibrium dissociation constant (Kd) with human C5 [1] was found to be 0.135 nM; with human C5 [2] it was 374 nM.

B3: EHL046 (antibody, V domains shown)
VH: QVQLVQSGAEVKKPGASVKVSCKASGHIFSNYWIQWVRQAPGQGLEWMGEIHPGSGSTEYTENFKDRVTMTRDTSTSTVYMELSSLRSEDTAVYYCARYFFGSSPNWYFDVWGQGTLVTVSS
VL: DIQMTQSPSSLSASVGDRVTITCGASENIYHALNWYQQKPGKAPKLLIYGATNLADGVPSRFSGSGSGTDFTLTISSLQPEDFATYYCQNVLNTPLTFGQGTKVEIK
Molecule B3 yielded a dissociation constant (Kd) with human C5 [1] of 1.15 nM.

B4: BHL009 (antibody)
chain 1: QVQLQQPGAELVRPGTSVKLSCKASGYTFTSSWMHWVKQRPGQGLEWIGVIDPHDSYTNYNQKFKGKATLTVDTSSSTAYMQLSSLTSEDSAVYYCARGGGSSYNRYFDVWGTGTTVTVSSASTKGPSVFPLAPCSRSTSESTAALGCLVKDYFPEPVTVSWNSGALTSGVHTFPAVLQSSGLYSLSSVVTVPSSNFGTQTYTCNVDHKPSNTKVDKTVERKCCVECPPCPAPPVAGPSVFLFPPKPKDTLMISRTPEVTCVVVDVSQEDPEVQFNWYVDGVEVHNAKTKPREEQFNSTYRVVSVLTVLHQDWLNGKEYKCKVSNKGLPSSIEKTISKAKGQPREPQVYTLPPSQEEMTKNQVSLTCLVKGFYPSDIAVEWESNGQPENNYKTTPPVLDSDGSFFLYSRLTVDKSRWQEGNVFSCSVLHEALHSHYTQKSLSLSLGK
chain 2: not shown
As to B4, the binding result in the assay with mouse C5 [3] was “no binding”. The molecule also displayed a Kd with mouse C5 [4] of 4.19 nM.

B5: BHL006 (antibody)
chain 1: QVQLQQPGAELVRPGTSVKLSCKASGYTFTSSWMHWVKQRPGQGLEWIGVIDPHDSYTNYNQKFKGKATLTVDTSSSTAYMQLSSLTSEDSAVYYCARGGGSSYNRYFDVWGTGTTVTVSSASTKGPSVFPLAPCSRSTSESTAALGCLVKDYFPEPVTVSWNSGALTSGVHTFPAVLQSSGLYSLSSVVTVPSSNFGTQTYTCNVDHKPSNTKVDKTVERKCCVECPPCPAPPVAGPSVFLFPPKPKDTLMISRTPEVTCVVVDVSQEDPEVQFNWYVDGVEVHNAKTKPREEQFNSTYRVVSVLTVLHQDWLNGKEYKCKVSNKGLPSSIEKTISKAKGQPREPQVYTLPPSQEEMTKNQVSLTCLVKGFYPSDIAVEWESNGQPENNYKTTPPVLDSDGSFFLYSRLTVDKSRWQEGNVFSCSVMHEALHNHYTQKSLSLSLGK
chain 2: not shown
With B5, the binding result with mouse C5 [3] is recorded as “no binding”. Moreover, the dissociation constant (Kd) with mouse C5 [4] stood at 3.49 nM.

B6: BHL011 (antibody, V domains shown)
VH: QVQLQQPGAELVRPGTSVKLSCKASGYTFTSSWMHWVKQRPGQGLEWIGVIDPSDSYTNYNQKFKGKATLTVDTSSSTAYMQLSSLTSEDSAVYYCARGGGSSYNRYFDVWGTGTTVTVSS
VL: NIMMTQSPSSLAVSAGEKVTMSCKSSQSVLYSSNQKNYLAWYQQKPGQSPKLLIYWASTRESGVPDRFTGSGSGTDFTLTISSVQAEDLAVYYCAQYLSSRTFGGGTKLEIKR
B6: the dissociation constant (Kd) turned out to be 53.6 nM with mouse C5 [5] and 0.0952 nM in the assay with mouse C5 [4].
